Assays:
MS2 coat protein [1] = test: apparent KD of MS2 coat protein, switch OFF state (with FMN for OFF switches, without FMN for ON switches); designed switch direction (-1 OFF switch, 1 ON switch): 1; higher = weaker reporter binding; details: FMN input: 0 or 200 uM; Eterna round: R93 (includes R88 designs)
Procedure, shortened: (§1)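 Designed RNA switches were transcribed on-chip from Illumina sequencing clusters and titrated with SNAP-549-labelled MS2 coat protein in twofold steps from 0.7 or 1.5 nM up to 3 µM. Each step lasted 0.8–1.5 h at first and 10–20 min by the end, in 100 mM Tris-HCl pH 7.5, 80 mM KCl and 4 mM MgCl2, without or with constant ligand. Apparent KD is the median, for each design, of fits to normalised cluster binding curves.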

MS2 coat protein [2] = test: apparent KD of MS2 coat protein, switch ON state; designed switch direction (-1 OFF switch, 1 ON switch): 1; higher = weaker reporter binding; details: FMN input: 0 or 200 uM; Eterna round: R93 (includes R88 designs)
Procedure, shortened: as §1

Sequence	apparent KD of MS2 coat protein (MS2 coat protein [1]) [nM]	apparent KD of MS2 coat protein (MS2 coat protein [2]) [nM]
AAGAAACAUGAGGAUCACCCAUGUAGAAAUAUGGGAGGAUAUACGAGGACGAAAGUCAAAGUAGAAGGCCUAAGAA [Mat - Same State 1 - Meechl mod - D130]	66.9	19.6
AAGAAACAUGAGGAUCACCCAUGUGAAAGAAACACAGGAUAUGCGAAAAGAAACAAAGAAGCAGAAGGGUGAAGAA [Mat - Same State 1 - Tesla mod - 58]	39.2	22.6
AAGGAACAUGAGGAUCACCCAUGUAAAAAAUAUGGAGGAUAUACUAGAAGAAACAAAAUAGUAGAAGGCCAAAAAA [75%, Ex sub1, 30]	20.6	16.5
AAUACACAUAGUCAGGAUAUCAAAAAUAAGACAUGAGGAUCACCCAUGUAAUAAGUAAAAGUAAAUGAGAAGGGACAGGGUGAAA [JR_SS002_Sub402]	79.3	33
AAUAUACAUGAGGAUCACCCAUGUUAGGUGGGUCAAGGAUAUCAAAAUAAAUAAAGAACAUGAGAAGGUGAAUAAA [JR_SS001_Sub018]	161	207
AAUAUAUUAAGUGAGGAUAUCAUAGGAAAAACAUGAGGAUCACCCAUGUGGGAAACCUGGUCGGGUGAGAAGGCACUUAAUAUAU [Samwise Clockwise 30 - Jieux - Same State 2]	217	37.5
AAUAUAUUAAGUGAGGAUAUCGAGGAAAAAACAUGAGGAUCACCCAUGUGGGUAAAAAAAAAAAGUGAGAAGGUGCUUAAUAUAU [Samwise Clockwise 10 - Jieux - Same State 2]	128	32.3
AAUGAACAUGAGGAUCACCCAUGUUCUAAUAGUUGAGGAUAUAUGGGUGAAAAUAGCACGGUAGAAGGCGAGUGUA [SameState1 Malc#18]	104	249
ACUAUACAUGAGGAUCACCCAUGUCAGGUGGGACUAGGAUAUCAUAAGCCAGAGUAAGAAUGAGAAGGAGUAGAAA [JR_SS001_Sub306]	151	143
AGAAAACAUGAGGAUCACCCAUGUCAGAAAUGGCAAGGAUAUAGAAAAGAAAAAGAAAAACUAGAAGGUGCAAAAG [Meechl SS1 R2 m2]	153	187
AGAAAUAAAAGAGAGGAUAUCCAAAAGAAAACAUGAGGAUCACCCAUGUGAAACAAAACAAAAUGGGAGAAGGCUCAAAAUAAGA [Topaz 16]	137	31
AGAAAUAAAAGAGAGGAUAUCCAAAAUAAAACAUGAGGAUCACCCAUGUCUACGAAAGUAGGAUGGGAGAAGGCUCAAAAUAAAG [80% More Helter Skelter 2 + Hairpin]	14.8	120
AGAAAUAAAAGAGAGGAUAUCCAAAAUAAAACAUGAGGAUCACCCAUGUGAAACAAAACAAAAUGGGAGAAGGCUCAAAAUAAGA [Topaz 17]	33.9	15.7
AGAAAUAAAAGCUAGGAUAUCCAAAAGAAAACAUGAGGAUCACCCAUGUAAAAGAAAAUAAAGUGGGAGAAGGAGCAAAAUAAGA [Starry modified]	35.6	18
AGAAAUAAAAGGCAGGAUAUCCAAAAGAAAACAUGAGGAUCACCCAUGUAAAAGAAAAUAAAAUGGGAGAAGGGCCAAAAUAAAG [Fisker 73]	42.3	13.1
AGAAUAAAAAGACAGGAUAUCCAAAAGAAAACAUGAGGAUCACCCAUGUAAAAAAAAAUAAAAUGGGAGAAGGGUCAAAAUAAAG [Mat - Same State 2 - JL mod - D69]	44	18
AGAUCUAGAAGGUAGGAUAUGUGUAAAAAUACAUGAGGAUCACCCAUGUGAUGAAUAAAAAGAAAAUAGAAGGACCAUCUAGAUC [Cross swing 3]	119	16.8
AGGAAACAUGAGGAUCACCCAUGUAAAAAUAUCACAGGAUAUGGAAACACGAAAGUGAAACCAGAAGGGUGAAAAG [77%, Mat - Mod of Eli, 13]	32	13.2
AGGAAACAUGAGGAUCACCCAUGUAAAAAUAUGGAAGGAUAUGGAAACACGAAAGUGAAACCAGAAGGUCUGAAAA [77%, Mat - Mod of Eli, 20]	23.3	16.6
